Some targets named below: HLA-B8; HLA-B7; HLA-A3; HLA-A11; HLA-A29; HLA-A2; HLA-A24; HLA-B15; HLA-B35; HLA-A1; HLA-B14; HLA-B27.
What all share (experiment): REVEAL MHC-peptide binding

Results on seven substances are retold here after patent US20130337002A1.

Consider P[Cit]IGVRAT[Cit] (peptide), for which the % of positive control in the assay with HLA-B8 was found to be 9.47%; in the assay with HLA-B7, 1.91%; with HLA-A3, 2.52%; with HLA-A11, 1.72%; with HLA-A29, 14.1%; with HLA-A2 it was 7.36%. For the same substance, the % of positive control was found to be 0.21% in the assay with HLA-A24; 12.6% with HLA-B15; 2.45% with HLA-B35; 18.8% with HLA-A1; 0.19% with HLA-B14; 0.94% with HLA-B27.

As for GP[Cit]IGVRAT (peptide), the % of positive control is 9.99% with HLA-B8; 5.38% with HLA-B7; 3.48% with HLA-A3; 2.72% with HLA-A11; 11.9% with HLA-A29; 9.16% with HLA-A2. Besides, the % of positive control in the assay with HLA-A24 is 0.16%; with HLA-B15, 7.29%; in the assay with HLA-B35, 2.25%; with HLA-A1, 18.6%; with HLA-B14, 0.13%; with HLA-B27, 0.59%.

As to L[Nle]GYIPLIG (peptide), the % of positive control with HLA-B8 is 17.3%; in the assay with HLA-B7, 0.89%; in the assay with HLA-A3 it was 3.98%; with HLA-A11 it was 2.48%; with HLA-A29, 25.9%; with HLA-A2 it was 49.5%. In addition, the % of positive control in the assay with HLA-A24 turned out to be 0.71%; with HLA-B15 it was 14.6%; with HLA-B35 it was 2.85%; in the assay with HLA-A1, 14.3%; in the assay with HLA-B14, 0.15%; in the assay with HLA-B27, 0.73%.

On to AEL[Nle]GYIPL (peptide), for which the % of positive control is 14.7% in the assay with HLA-B8; 1.11% in the assay with HLA-B7; 3.05% with HLA-A3; 3.61% with HLA-A11; 20.8% with HLA-A29; 7.49% with HLA-A2. Also, the % of positive control came out at 0.37% with HLA-A24; 10.2% with HLA-B15; 1.91% in the assay with HLA-B35; 16.6% with HLA-A1; 0.12% with HLA-B14; 0.77% with HLA-B27.

For the substance [Cit]IGVRAT[Cit]R (peptide), the % of positive control was found to be 12.1% in the assay with HLA-B8; 14.6% with HLA-B7; 25.2% with HLA-A3; 8.27% in the assay with HLA-A11; 16.7% with HLA-A29; 8.17% with HLA-A2. The % of positive control amounted to 0.5% with HLA-A24; 14.4% with HLA-B15; 8.51% with HLA-B35; 19.7% with HLA-A1; 0.17% in the assay with HLA-B14; 0.86% with HLA-B27.

As for [Nle]GYIPLIGA (peptide), the % of positive control in the assay with HLA-B8 was determined as 21.4%; with HLA-B7, 1.78%; with HLA-A3, 3.13%; with HLA-A11 it was 7.27%; with HLA-A29 it was 27.9%; with HLA-A2, 10.4%. In addition, the % of positive control was 1.33% with HLA-A24; 11.1% in the assay with HLA-B15; 5.89% in the assay with HLA-B35; 17.9% with HLA-A1; 0.29% in the assay with HLA-B14; 1.42% with HLA-B27.

In the case of EL[Nle]GYIPLI (peptide), the % of positive control in the assay with HLA-B8 stood at 17.1%; in the assay with HLA-B7, 0.68%; with HLA-A3 it was 4.54%; with HLA-A11 it was 3.21%; in the assay with HLA-A29 it was 20.9%; with HLA-A2, 97.9%. The % of positive control with HLA-A24 amounted to 0.92%; in the assay with HLA-B15, 8.91%; in the assay with HLA-B35 it was 2.55%; in the assay with HLA-A1, 18.3%; with HLA-B14, 0.14%; with HLA-B27 it was 0.67%.
